Assay results taken from patent US12553037B2, “Engineered class 2, type V repressor systems” (Scribe Therapeutics Inc., priority 2021, dated 2026).

Columns and labels:
human B2M locus = test: Editing (indel rate by NGS) at the B2M locus by catalytically-dead CasX variants (Example 8); format: cell-based; settings: B2M-targeting spacer 7.37, HEK293T, six days after transfection
[1] = system: endogenous B2M (beta-2-microglobulin) gene; test: B2M protein expression by HLA antibody staining and flow cytometry (Example 1); format: cell-based, human; settings: HEK293T, seven days post-transfection
From the text: dXR variant plasmids encoding constructs having the configuration of U6-gRNA+Ef1α-NLS-GGS-dCasX491-GGS-KRAB variant-NLS (dCasX491 refers to catalytically-dead CasX 491), were transiently transfected into HEK293T cells in an arrayed 96-well format. These constructs also contained a 2× FLAG sequence, as well as sequences encoding either a gRNA scaffold 174 (SEQ ID NO: 2238) having a spacer (spacer 7.37) targeting the endogenous B2M (beta-2-microglobulin) gene or a non-targeting control (spacer 0.0), which were all cloned upstream of a P2A-puromycin element on the plasmid. Four different effector domains were tested in addition to the “naked” dCasX491 (KRAB variant domains listed in Table 9; spacer sequences listed in Table 10; sequences of additional elements listed in Table 11). The corresponding protein sequences of the dXR molecule are listed in Table 13, and the generic configuration of the dXR molecule is illustrated in FIG. 38. Positive and negative controls based on a catalytically-dead Cas9 nuclease (with or without a ZNF10 repressor) with a B2M-targeting gRNA (spacer 7.14) or a non-targeting gRNA control (spacer 0.0) were included, along with a catalytically-active CasX 491 and gRNA with the same 7.37 and 0.0 spacers. Two days after transfection, total RNA was harvested, and reverse transcribed to generate a cDNA library. Changes in gene expression were calculated by performing qPCR on the targeted gene and a housekeeping gene as reference. Relative gene expression represents the amount of target-specific RNA relative to a reference gene normalized to the non-targeting guide condition for two biological replicates. In addition to the wells used for RNA measurements, a separate set of wells was harvested seven days post-transfection and analyzed for B2M protein expression. Expression of B2M protein was determined by using an antibody that detects the B2M-dependent HLA protein complex on the cell surface.

B1: dCasX491: catalytically-dead CasX 491, SEQ ID NO: 18 (protein)
chain: QEIKRINKIRRRLVKDSNTKKAGKTGPMKTLLVRVMTPDLRERLENLRKKPENIPQPISNTSRANLNKLLTDYTEMKKAILHVYWEEFQKDPVGLMSRVAQPASKKIDQNKLKPEMDEKGNLTTAGFACSQCGQPLFVYKLEQVSEKGKAYTNYFGRCNVAEHEKLILLAQLKPEKDSDEAVTYSLGKFGQRALDFYSIHVTKESTHPVKPLAQIAGNRYASGPVGKALSDACMGTIASFLSKYQDIIIEHQKVVKGNQKRLESLRELAGKENLEYPSVTLPPQPHTKEGVDAYNEVIARVRMWVNLNLWQKLKLSRDDAKPLLRLKGFPSFPLVERQANEVDWWDMVCNVKKLINEKKEDGKVFWQNLAGYKRQEALRPYLSSEEDRKKGKKFARYQLGDLLLHLEKKHGEDWGKVYDEAWERIDKKVEGLSKHIKLEEERRSEDAQSKAALTDWLRAKASFVIEGLKEADKDEFCRCELKLQKWYGDLRGKPFAIEAENSILDISGFSKQYNCAFIWQKDGVKKLNLYLIINYFKGGKLRFKKIKPEAFEANRFYTVINKKSGEIVPMEVNFNFDDPNLIILPLAFGKRQGREFIWNDLLSLETGSLKLANGRVIEKTLYNRRTRQDEPALFVALTFERREVLDSSNIKPMNLIGVARGENIPAVIALTDPEGCPLSRFKDSLGNPTHILRIGESYKEKQRTIQAKKEVEQRRAGGYSRKYASKAKNLADDMVRNTARDLLYYAVTQDAMLIFANLSRGFGRQGKRTFMAERQYTRMEDWLTAKLAYEGLSKTYLSKTLAQYTSKTCSNCGFTITSADYDRVLEKLKKTATGWMTTINGKELKVEGQITYYNRYKRQNVVKDLSVELDRLSEESVNNDISSWTKGRSGEALSLLKKRFSHRPVQEKFVCLNCGFETHAAEQAALNIARSWLFLRSQEYKKYQTNKTTGNTDKRAFVETWQSFYRKKLKEVWKPAV
B1 was tested, and the “percent editing at the B2M locus measured as indel rate” value (“percent editing at the B2M locus” for short) (human B2M locus) was “did not exhibit editing” and the “% of cells negative for the B2M protein” value ([1]; B2M-targeting gRNA) was about 10%.

B2: dXR4: dCasX491 fused to ZNF334 KRAB domain; protein SEQ ID NO: 59441 (protein)
chain: MAPKKKRKVSRGGSGGGSAQEIKRINKIRRRLVKDSNTKKAGKTGPMKTLLVRVMTPDLRERLENLRKKPENIPQPISNTSRANLNKLLTDYTEMKKAILHVYWEEFQKDPVGLMSRVAQPASKKIDQNKLKPEMDEKGNLTTAGFACSQCGQPLFVYKLEQVSEKGKAYTNYFGRCNVAEHEKLILLAQLKPEKDSDEAVTYSLGKFGQRALDFYSIHVTKESTHPVKPLAQIAGNRYASGPVGKALSDACMGTIASFLSKYQDIIIEHQKVVKGNQKRLESLRELAGKENLEYPSVTLPPQPHTKEGVDAYNEVIARVRMWVNLNLWQKLKLSRDDAKPLLRLKGFPSFPLVERQANEVDWWDMVCNVKKLINEKKEDGKVFWQNLAGYKRQEALRPYLSSEEDRKKGKKFARYQLGDLLLHLEKKHGEDWGKVYDEAWERIDKKVEGLSKHIKLEEERRSEDAQSKAALTDWLRAKASFVIEGLKEADKDEFCRCELKLQKWYGDLRGKPFAIEAENSILDISGFSKQYNCAFIWQKDGVKKLNLYLIINYFKGGKLRFKKIKPEAFEANRFYTVINKKSGEIVPMEVNFNFDDPNLIILPLAFGKRQGREFIWNDLLSLETGSLKLANGRVIEKTLYNRRTRQDEPALFVALTFERREVLDSSNIKPMNLIGVARGENIPAVIALTDPEGCPLSRFKDSLGNPTHILRIGESYKEKQRTIQAKKEVEQRRAGGYSRKYASKAKNLADDMVRNTARDLLYYAVTQDAMLIFANLSRGFGRQGKRTFMAERQYTRMEDWLTAKLAYEGLSKTYLSKTLAQYTSKTCSNCGFTITSADYDRVLEKLKKTATGWMTTINGKELKVEGQITYYNRYKRQNVVKDLSVELDRLSEESVNNDISSWTKGRSGEALSLLKKRFSHRPVQEKFVCLNCGFETHAAEQAALNIARSWLFLRSQEYKKYQTNKTTGNTDKRAFVETWQSFYRKKLKEVWKPAVRSGGSGGGSTSKMKKFQIPVSFQDLTVNFTQEEWQQLDPAQRLLYRDVMLENYSNLVSVGYHVSKPDVIFKLEQGEEPWIVEEFSNQNYPDTSPKKKRKV
For B2, the “% cells expressing B2M protein” value ([1]; spacer 0.0 (non-targeting)) was 98.23% and the “% cells expressing B2M protein” value ([1]; spacer 7.37 (B2M-targeting, CasX)) was 19.80%.

B3: dCasX668: dCasX variant, SEQ ID NO: 59355 (protein)
chain: QEIKRINKIRRRLVKDSNTKKAGKTRGPMKTLLVRVMTPDLRERLENLRKKPENIPQPISNTSRANLNKLLTDYTEMKKAILHVYWEEFQKDPVGLMSRVAQPASKKIDQNKLKPEMDEKGNLTTAGFACSQCGQPLFVYKLEQVSEKGKAYTNYFGRCNVAEHEKLILLAQLKPEKDSDEAVTYSLGKFGQRALDFYSIHVTKESTHPVKPLAQIAGNRYASSPVGKALSDACMGTIASFLSKYQDIIIEHQKVVKGNQKRLESLRELAGKENLEYPSVTLPPQPHTKEGVDAYNEVIARVRMWVNLNLWQKLKLSRDDAKPLLRLKGFPSFPLVERQANEVDWWDMVCNVKKLINEKKEDGKVFWQNLAGYKRQEALRPYLSSEEDRKKGKKFARYQLGDLLLHLEKKHGEDWGKVYDEAWERIDKKVEGLSKHIKLEEERRSEDAQSKAALTDWLRAKASFVIEGLKEADKDEFCRCELKLQKWYGDLRGKPFAIEAENSILDISGFSKQYNCAFIWQKDGVKKLNLYLIINYFKGGKLRFKKIKPEAFEANRFYTVINKKSGEIVPMEVNFNFDDPNLIILPLAFGKRQGREFIWNDLLSLETGSLKLANGRVIEKTLYNRRTRQDEPALFVALTFERREVLDSSNIKPMNLIGVARGENIPAVIALTDPEGCPLSRFKDSLGNPTHILRIGESYKEKQRTIQAKKEVEQRRAGGYSRKYASKAKNLADDMVRNTARDLLYYAVTQDAMLIFANLSRGFGRQGKRTFMAERQYTRMEDWLTAKLAYEGLPSKTYLSKTLAQYTSKTCSNCGFTITSADYDRVLEKLKKTATGWMTTINGKELKVEGQITYYNRYKRQNVVKDLSVELDRLSEESVNNDISSWTKGRSGEALSLLKKRFSHRPVQEKFVCLNCGFETHAAEQAALNIARSWLFLRSQEYKKYQTNKTTGNTDKRAFVETWQSFYRKKLKEVWKPAV
B3 was tested, and the “percent editing at the B2M locus” value (human B2M locus) was “did not exhibit editing”.

B4: dCasX676: dCasX variant, SEQ ID NO: 59357 (protein)
chain: QEIKRINKIRRRLVKDSNTKKAGKTRGPMKTLLVRVMTPDLRERLENLRKKPENIPQPISNTSRANLNKLLTDYTEMKKAILHVYWEEFQKDPVGLMSRVAQPASKKIDQNKLKPEMDEKGNLTTAGFACSQCGQPLFVYKLEQVSEKGKAYTNYFGRCNVAEHEKLIKLAQLKPEKDSDEAVTYSLGKFGQRALDFYSIHVTKESTHPVKPLAQIAGNRYASSPVGKALSDACMGTIASFLSKYQDIIIEHQKVVKGNQKRLESLRELAGKENLEYPSVTLPPQPHTKEGVDAYNEVIARVRMWVNLNLWQKLKLSRDDAKPLLRLKGFPSFPLVERQANEVDWWDMVCNVKKLINEKKEDGKVFWQNLAGYKRQEALRPYLSSEEDRKKGKKFARYQLGDLLLHLEKKHGEDWGKVYDEAWERIDKKVEGLSKHIKLEEERRSEDAQSKAALTDWLRAKASFVIEGLKEADKDEFCRCELKLQKWYGDLRGKPFAIEAENSILDISGFSKQYNCAFIWQKDGVKKLNLYLIINYFKGGKLRFKKIKPEAFEANRFYTVINKKSGEIVPMEVNFNFDDPNLIILPLAFGKRQGREFIWNDLLSLETGSLKLANGRVIEKTLYNRRTRQDEPALFVALTFERREVLDSSNIKPMNLIGVARGENIPAVIALTDPEGCPLSRFKDSLGNPTHILRIGESYKEKQRTIQAKKEVEQRRAGGYSRKYASKAKNLADDMVRNTARDLLYYAVTQDAMLIFANLSRGFGRQGKRTFMAERQYTRMEDWLTAKLAYEGLPSKTYLSKTLAQYTSKTCSNCGFTITSADYDRVLEKLKKTATGWMTTINGKELKVEGQITYYNRYKRQNVVKDLSVELDRLSEESVNNDISSWTKGRSGEALSLLKKRFSHRPVQEKFVCLNCGFETHAAEQAALNIARSWLFLRSQEYKKYQTNKTTGNTDKRAFVETWQSFYRKKLKEVWKPAV
In the case of B4, the “percent editing at the B2M locus” value (human B2M locus) is reported as “did not exhibit editing”.

B5: dCasX527: dCasX variant, SEQ ID NO: 24 (protein)
chain: QEIKRINKIRRRLVKDSNTKKAGKTRGPMKTLLVRVMTPDLRERLENLRKKPENIPQPISNTSRANLNKLLTDYTEMKKAILHVYWEEFQKDPVGLMSRVAQPASKKIDQNKLKPEMDEKGNLTTAGFACSQCGQPLFVYKLEQVSEKGKAYTNYFGRCNVAEHEKLILLAQLKPEKDSDEAVTYSLGKFGQRALDFYSIHVTKESTHPVKPLAQIAGNRYASGPVGKALSDACMGTIASFLSKYQDIIIEHQKVVKGNQKRLESLRELAGKENLEYPSVTLPPQPHTKEGVDAYNEVIARVRMWVNLNLWQKLKLSRDDAKPLLRLKGFPSFPLVERQANEVDWWDMVCNVKKLINEKKEDGKVFWQNLAGYKRQEALRPYLSSEEDRKKGKKFARYQLGDLLLHLEKKHGEDWGKVYDEAWERIDKKVEGLSKHIKLEEERRSEDAQSKAALTDWLRAKASFVIEGLKEADKDEFCRCELKLQKWYGDLRGKPFAIEAENSILDISGFSKQYNCAFIWQKDGVKKLNLYLIINYFKGGKLRFKKIKPEAFEANRFYTVINKKSGEIVPMEVNFNFDDPNLIILPLAFGKRQGREFIWNDLLSLETGSLKLANGRVIEKTLYNRRTRQDEPALFVALTFERREVLDSSNIKPMNLIGVARGENIPAVIALTDPEGCPLSRFKDSLGNPTHILRIGESYKEKQRTIQAKKEVEQRRAGGYSRKYASKAKNLADDMVRNTARDLLYYAVTQDAMLIFANLSRGFGRQGKRTFMAERQYTRMEDWLTAKLAYEGLSKTYLSKTLAQYTSKTCSNCGFTITSADYDRVLEKLKKTATGWMTTINGKELKVEGQITYYNRYKRQNVVKDLSVELDRLSEESVNNDISSWTKGRSGEALSLLKKRFSHRPVQEKFVCLNCGFETHAAEQAALNIARSWLFLRSQEYKKYQTNKTTGNTDKRAFVETWQSFYRKKLKEVWKPAV
In the case of B5, the “percent editing at the B2M locus” value (human B2M locus) is reported as “did not exhibit editing”.
